Where a SMILES comes first, the peptide text is derived from it. The star is where a group is joined. Cbz = O=C(OCc1ccccc1)*
B1: XBP-1s: vector encoding only the spliced form of murine XBP-1, a protein of 371 aa (protein)
chain: MVVVAAAPSAATAAPKVLLLSGQPASGGRALPLMVPGPRAAGSEASGTPQARKRQRLTHLSPEEKALRRKLKNRVAAQTARDRKKARMSELEQQVVDLEEENHKLQLENQLLREKTHGLVVENQELRTRLGMDTLDPDEVPEVEAKGSGVRLVAGSAESAAGAGPVVTSPEHLPMDSDTVASSDSESDILLGILDKLDPVMFFKCPSPESASLEELPEVYPEGPSSLPASLSLSVGTSSAKLEAINELIRFDHVYTKPLVLEIPSETESQTNVVVKIEEAPLSSSEEDHPEFIVSVKKEPLEDDFIPELGISNLLSSSHCLRPPSCLLDAHSDCGYEGSPSPFSDMSSPLGTDHSWEDTFANELFPQLISV

How the values were obtained:
XBP-1 protein = XBP-1 protein species in MOPC315 and MM.1S myeloma cells treated with proteasome inhibitors (Western blot); format: cell-based; settings: mouse myeloma MOPC315 and human myeloma MM.1S
Procedure: A variety of reversible and irreversible inhibitors that inhibit degradation of proteins by the ubiquitin-proteasome pathway have recently been identified. Proteasome inhibitors MG132 and PS341 block the rapid degradation of ubiquitinated proteins such as unspliced, but not spliced XBP-1. Myeloma cells express primarily spliced XBP-1 protein as expected. […] In this experiment lysates from MOPC315 cells were untreated or treated for 6 hours with 5 ug/ml of tunicamycin or 20 uM of MG-132 and were analyzed for the presence of XBP-1 using XBP-1 antibody. The two forms of XBP-1 were distinguished by their molecular weight.
In the presence of proteasome inhibitors, unspliced XBP-1 protein accumulates in the cell and is present at higher levels than the spliced protein. Lysates from Mm. 1S cells were untreated or treated for 1, 4, or 8 hours with 20 uM of PS-341 and were analyzed by western blotting with anti-XBP-1 antibody. Because unspliced, but not spliced XBP-1 is stabilized, the ratio of unspliced to spliced XBP-1 increases in cells treated with proteasome inhibitors.

XBP-1^−/− B cells = assay: Ig production by retrovirally transduced XBP-1-/- primary B cells (ELISA); format: cell-based, mouse; settings: LPS 10 μg/ml 72 h
Procedure: (§1) Assays to measure immunoglobulin or cytokine levels in culture supernatants were performed as described (e.g., Hodge et al., 1996 Immunity. 4:397-405 or Science. 1996 274:1903-5).
(§2) The XBP-1 cDNAs for the unspliced (XBP-1u/s) and the spliced (XBP-1s) forms were PCR-amplified from the total RNA of untreated and tunicamycin treated NIH3T3 cells, respectively, with a primer set (5′-[…]-3′ (SEQ ID NO: 7) and 5′-[…]-3′) (SEQ ID NO: 8). XBP-1u form was generated by a PCR-based mutagenesis from XBP-unspliced/s cDNA so that the two G residues at position 532 and 535 were changed to A without changing amino acid sequences in the XBP-1u open reading frame. Numbers are based on the sequences from gene bank database (NM_013842 [gi:13775155]). These XBP-1 cDNAs were inserted into the GFP-RV retroviral vector by using blunt end ligation (Sambrook et al., 1989). EFFECTENE transfection (Quiagen) was used to introduce the DNA into the Phoenix cell line as described by manufacturer (e.g., Reimold et al., 2001 Nature. 412:300-7 or Int Immunol. 2001 13:241-8). Viral supernatants were harvested after 48 hours and frozen at −80° C. for later use. B cells were purified from mouse spleens using CD43 depletion or positive selection with B220+ magnetic beads as described by the manufacturer (MidiMacs, Miltenyi Biotech). B cell purity was generally near 95% as confirmed by flow cytometry. The B cells (10^6 cells /ml) were then activated in culture with LPS 10 μg/ml and F (ab′)2 anti-IgM (5 μg/ml Southern Biotechnology Associates Inc.) for 24 hours. The 1 ml of activated B cells (10^6 cells/ml) were mixed with 4 μg of polybrene and 1 ml of virus-containing supernatant and spun at 1000 g for 45 minutes at 24° C. Cells were incubated for 24-36 h at 37° C. and then GFP+ cells were flow sorted and returned to culture with and without stimulation.
The effects of these three different forms of XBP-1 on Ig secretion were compared in wild type and XBP-1^−/− B cells. In vitro activated splenic B cells were transduced using retroviruses expressing bicistronic mRNA encoding XBP-1u/s, XBP-1s, XBP-1u or control GFP. In FIGS. 5(A) and (B) purified B cells from wt and XBP-1^−/− mice were activated in culture with LPS 10 μg/ml and F (ab′)2 anti-IgM (5 μg/ml) for 24 hours. Retroviral transduction with GFP alone (GFP-Rv), XBP-1u/s (XBP-1u/s GFP Rv), XBP-1s (XBP-1s GFP Rv) or XBP-1u (XBP-1u GFP Rv) of activated B cells was performed. Cells were incubated for 24-36 h at 37° C. and then GFP+ cells were flow sorted and then returned to culture with LPS stimulation (10 μg/ml) for 72 h. IgM panel(A) and IgG2b panel (B) production analyzed by ELISA from culture supernatants of stimulated B cells. Experiments were done at least three times and standard deviation is shown.

IL-6 = IL-6 production by retrovirally transduced wt and XBP-1-/- B cells (ELISA, Northern blot); format: cell-based, murine; settings: for secretion of IL-6 compared to control cells: LPS 72 h
Procedure: as §1, §2
In human multiple myeloma cells, XBP-1 was induced by IL-6 treatment and implicated in the proliferation of malignant plasma cells (Wen et al., 1999). However, no role for IL-6 in upregulating XBP-1 transcripts or in mediating splicing of XBP-1 RNA in mature B cells has been described (FIG. 6A). The ability of XBP-1 to induce IL-6 production in wt and XBP-1^−/− primary B cells was tested. As described above, in vitro activated murine splenic B cells were transduced using retroviruses expressing bicistronic mRNA for XBP-1u/s, XBP-1s, XBP-1u and control GFP. After cell sorting, GFP^+ cells were stimulated with LPS and assayed for cytokine production after 72 h. In FIG. 6 panel (A) purified B cells from wt and XBP-1^−/− mice were activated in culture with LPS 10 μg/ml and F(ab′)2 anti-IgM (5 μg/ml ) for 24 hours. Retroviral transduction with GFP alone (GFP-Rv), XBP-1u/s (XBP-1 u/s GFP Rv), XBP-1s (XBP-1s GFP Rv) or XBP-1u (XBP-1u GFP Rv) of activated B cells was performed. Cells were incubated for 24-36 h at 37° C. and then GFP+ cells were flow sorted and then returned to culture with LPS stimulation (10 μg/ml) for 72 h. Cytokine production was analyzed by ELISA from culture supernatants of stimulated B cells. Experiments were done at least three times and standard deviation is shown. In panel (B) Total RNAs were prepared from stimulated B cells above and XBP-1 mRNA levels were determined by Northern blot analysis with γ-actin control

Molecule	amount of unspliced XBP-1 protein (XBP-1 protein)	levels of active spliced XBP-1 protein (XBP-1 protein)	secretion of IgM compared to control cells (XBP-1^−/− B cells)	secretion of IL-6 compared to control cells (IL-6; XBP-1-/- B cells)	increase in IL-6 gene expression compared to controls (Northern blot) (IL-6; XBP-1s transduced cells)	secretion of IL-6 compared to control cells (IL-6; wild type B cells)
CC(C)C[C@@H](C=O)NC(=O)[C@H](CC(C)C)NC(=O)[C@H](CC(C)C)NC(=O)OCc1ccccc1 [MG-132] (Cbz-Leu-Leu-Leu-aldehyde)	dramatic increase in the amount of unspliced XBP-1 protein	concomitant decrease in levels of the active spliced XBP-1 protein	–	–	–	–
B1	–	–	approximately ten-fold	seven fold	~5 fold	approximately ten-fold

Reference: patent US20040170622A1, “Methods and compositions for modulating XBP-1 activity” (President and Fellows of Harvard College, priority 2002, published 2004)
